Laboratory results taken from the supplement of paper PMC7125110.
± gives the standard error. For some of these results: Variants at the floor of the assay were thinned out.

B1: glmS ribozyme (parent)
chain: AUAAAAGCGCCAGAACUACAGAAAUGUAGUUGACGAGGAGGAGGUUUAUCGAAUUUUCGGCGGAUGCCUCCAAA

Key:
Conditions in all cases: with glucosamine-6-phosphate
glucosamine-6-phosphate [1] = variants of: B1; test: kcat; higher = faster cleavage; RNA array
In short: (§1)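 The measurements used barcoded ribozyme variants on sequenced MiSeq chips, transcribed in situ by E. coli RNA polymerase and tracked at 37 °C with a hybridised Cy3 probe. Glucosamine-6-phosphate, 40 μM to 10 mM in HEPES/KCl/Mg(OAc)2 buffer, was flowed in while tiles were imaged over ~14 h. Baseline-normalised signals, also normalised to non-cleaving reference variants, gave per-tile medians that were fit to one- or two-exponential decays for kobs. kcat and KM resulted from weighted Michaelis–Menten fits across concentrations.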

glucosamine-6-phosphate [2] = variants of: B1; test: self-cleavage kobs at 40 uM GlcN6P; higher = faster cleavage; RNA array
In short: as §1

glucosamine-6-phosphate [3] = variants of: B1; test: self-cleavage kobs at 640 uM GlcN6P; higher = faster cleavage; RNA array
In short: as §1

glucosamine-6-phosphate [4] = variants of: B1; test: KM; higher = weaker cofactor use; RNA array
In short: as §1

glucosamine-6-phosphate [5] = variants of: B1; test: self-cleavage kobs at 2500 uM GlcN6P; higher = faster cleavage; RNA array
In short: as §1

glucosamine-6-phosphate [6] = variants of: B1; test: self-cleavage kobs at 10000 uM GlcN6P; higher = faster cleavage; RNA array
In short: as §1

glucosamine-6-phosphate [7] = variants of: B1; test: self-cleavage kobs at 160 uM GlcN6P; higher = faster cleavage; RNA array
In short: as §1

| Variant | kcat (glucosamine-6-phosphate [1]) | self-cleavage kobs at 40 uM GlcN6P (glucosamine-6-phosphate [2]) | self-cleavage kobs at 640 uM GlcN6P (glucosamine-6-phosphate [3]) | KM (glucosamine-6-phosphate [4]) | self-cleavage kobs at 2500 uM GlcN6P (glucosamine-6-phosphate [5]) | self-cleavage kobs at 10000 uM GlcN6P (glucosamine-6-phosphate [6]) | self-cleavage kobs at 160 uM GlcN6P (glucosamine-6-phosphate [7]) |
| --- | --- | --- | --- | --- | --- | --- | --- |
| A6C C68G | < 1e-05 s⁻¹ | < 1e-05 s⁻¹ | < 1e-05 s⁻¹ |  |  |  |  |
| A6C C68U | 4.51e-05 ± 1.8e-06 s⁻¹ |  |  | 534 ± 140 µM | 3.96e-05 ± 9.1e-06 s⁻¹ | 4.19e-05 ± 6.8e-06 s⁻¹ |  |
| C10U A12C | 5.93e-05 ± 3.7e-06 s⁻¹ |  |  | 3450 ± 580 µM | 2.54e-05 ± 8e-06 s⁻¹ | 4.39e-05 ± 8.1e-06 s⁻¹ |  |
| A6C G29A | < 1e-05 s⁻¹ | < 1e-05 s⁻¹ |  |  |  |  |  |
| C11G U56G | 1.32e-05 ± 5.5e-06 s⁻¹ | < 1e-05 s⁻¹ | < 1e-05 s⁻¹ |  |  |  |  |
| A6C A12C U57G | 1.28e-05 ± 2.4e-06 s⁻¹ |  |  |  |  | < 1e-05 s⁻¹ |  |
| C11U U56A C70U | 0.00048 ± 0.00011 s⁻¹ | 3.04e-05 ± 9.5e-06 s⁻¹ | 0.000508 ± 0.00011 s⁻¹ |  | 0.000485 ± 0.00013 s⁻¹ | 0.000416 ± 6.3e-05 s⁻¹ |  |
| C10U | 2.6e-05 ± 1.4e-06 s⁻¹ | < 1e-05 s⁻¹ | 1.32e-05 ± 2e-06 s⁻¹ | 499 ± 190 µM | 2.39e-05 ± 1.5e-06 s⁻¹ | 2.41e-05 ± 1e-06 s⁻¹ |  |
| C10A | < 1e-05 s⁻¹ |  |  | 559 ± 95 µM |  | < 1e-05 s⁻¹ |  |
| C10U U69G | 2.93e-05 ± 5.7e-06 s⁻¹ |  | 2.55e-05 ± 1.1e-05 s⁻¹ |  | 3.24e-05 ± 9.9e-06 s⁻¹ |  | 2.85e-05 ± 8.2e-06 s⁻¹ |
| A6G U55G | 0.000588 ± 4.1e-05 s⁻¹ |  | 0.000133 ± 3.4e-05 s⁻¹ | 2390 ± 350 µM | 0.000299 ± 5.2e-05 s⁻¹ | 0.000473 ± 7.8e-05 s⁻¹ |  |
| A12G U65G | 0.000107 ± 1.4e-05 s⁻¹ |  | 3.32e-05 ± 9e-06 s⁻¹ | 2380 ± 960 µM | 4.72e-05 ± 8.3e-06 s⁻¹ | 8.79e-05 ± 7.1e-06 s⁻¹ |  |
| A6U C50G A52U C61G C68U | 3.87e-05 ± 1.1e-05 s⁻¹ |  |  |  |  | 4.51e-05 ± 1.6e-05 s⁻¹ |  |
| A6U G29C | < 1e-05 s⁻¹ | < 1e-05 s⁻¹ | < 1e-05 s⁻¹ |  |  |  | < 1e-05 s⁻¹ |
| A12C C67A | 0.00471 ± 0.0013 s⁻¹ | 0.000204 ± 1.9e-05 s⁻¹ | 0.00125 ± 0.0002 s⁻¹ | 1180 ± 470 µM | 0.0034 ± 0.00084 s⁻¹ | 0.00467 ± 0.00054 s⁻¹ | 0.000456 ± 7.2e-05 s⁻¹ |
| G7U C16A G37A A53U C71A | 1.25e-05 ± 4.6e-06 s⁻¹ |  |  |  |  |  |  |
| C11G U30A | 4.67e-05 ± 2.4e-06 s⁻¹ |  |  |  |  |  |  |
| A12C U45A A64U | 0.00036 ± 8.2e-05 s⁻¹ |  | 2.84e-05 ± 1.2e-05 s⁻¹ | 5800 ± 2500 µM | 0.000134 ± 3.1e-05 s⁻¹ | 0.000223 ± 3.2e-05 s⁻¹ |  |

| Variant | kcat (glucosamine-6-phosphate [1]) | self-cleavage kobs at 40 uM GlcN6P (glucosamine-6-phosphate [2]) | self-cleavage kobs at 640 uM GlcN6P (glucosamine-6-phosphate [3]) | KM (glucosamine-6-phosphate [4]) | self-cleavage kobs at 2500 uM GlcN6P (glucosamine-6-phosphate [5]) | self-cleavage kobs at 10000 uM GlcN6P (glucosamine-6-phosphate [6]) | self-cleavage kobs at 160 uM GlcN6P (glucosamine-6-phosphate [7]) |
| --- | --- | --- | --- | --- | --- | --- | --- |
| A6C U45A | 0.000229 ± 1.7e-05 s⁻¹ | < 1e-05 s⁻¹ | 3.95e-05 ± 1.9e-05 s⁻¹ | 3720 ± 750 µM | 8.34e-05 ± 2.8e-05 s⁻¹ | 0.000168 ± 2.1e-05 s⁻¹ |  |
| G9A C61U | 0.000168 ± 1.3e-05 s⁻¹ |  | 5.18e-05 ± 1.1e-05 s⁻¹ | 1390 ± 290 µM | 0.000144 ± 5.4e-05 s⁻¹ | 0.000146 ± 1.8e-05 s⁻¹ |  |
| A12G A15C | 0.000514 ± 0.00013 s⁻¹ |  |  |  | 7.79e-05 ± 1e-05 s⁻¹ | 0.000205 ± 2.2e-05 s⁻¹ |  |
| A6U G32A | < 1e-05 s⁻¹ | < 1e-05 s⁻¹ |  |  |  |  | < 1e-05 s⁻¹ |
| G7A C16G | < 1e-05 s⁻¹ | < 1e-05 s⁻¹ |  |  | < 1e-05 s⁻¹ | < 1e-05 s⁻¹ | < 1e-05 s⁻¹ |
| C10U U47G | < 1e-05 s⁻¹ |  |  |  |  |  | < 1e-05 s⁻¹ |
| A12G A14U G32U G60A G66U | < 1e-05 s⁻¹ |  |  |  |  | < 1e-05 s⁻¹ |  |
| A12U G40A | 0.0133 ± 0.0024 s⁻¹ | 0.000618 ± 0.00017 s⁻¹ | 0.0042 ± 0.001 s⁻¹ | 1110 ± 310 µM | 0.00929 ± 0.0029 s⁻¹ | 0.013 ± 0.0034 s⁻¹ | 0.00156 ± 0.00048 s⁻¹ |
| C10A U65G | < 1e-05 s⁻¹ | < 1e-05 s⁻¹ | < 1e-05 s⁻¹ |  | < 1e-05 s⁻¹ | < 1e-05 s⁻¹ |  |
| G7U G51A G62A C70U | 1.17e-05 ± 2.6e-06 s⁻¹ |  |  |  |  |  |  |
| A12G U31C | 0.000113 ± 7.3e-06 s⁻¹ |  |  | 4090 ± 630 µM | 4.42e-05 ± 9.5e-06 s⁻¹ | 7.95e-05 ± 1.1e-05 s⁻¹ |  |
| A6G A15C | 7.64e-05 ± 3.5e-06 s⁻¹ | < 1e-05 s⁻¹ |  | 1700 ± 240 µM | 4.69e-05 ± 9.3e-06 s⁻¹ | 6.45e-05 ± 1.1e-05 s⁻¹ |  |
| A12U A52U | 0.00174 ± 0.00012 s⁻¹ |  | 0.000233 ± 3.8e-05 s⁻¹ | 4090 ± 490 µM | 0.000681 ± 9.8e-05 s⁻¹ | 0.00123 ± 0.00011 s⁻¹ | 7.11e-05 ± 2e-05 s⁻¹ |
| C11A C67G | 5.42e-05 ± 1.1e-05 s⁻¹ |  | 8.75e-05 ± 1.5e-05 s⁻¹ |  | 3.8e-05 ± 1e-05 s⁻¹ | 5.65e-05 ± 8.7e-06 s⁻¹ | 3.16e-05 ± 1.1e-05 s⁻¹ |
| C11U U56A | 0.00124 ± 0.00023 s⁻¹ | 3.72e-05 ± 1e-05 s⁻¹ | 0.000294 ± 4.5e-05 s⁻¹ | 1910 ± 580 µM | 0.000621 ± 7.2e-05 s⁻¹ | 0.00125 ± 0.00016 s⁻¹ | 0.000103 ± 1.4e-05 s⁻¹ |
| C11U U56C | 0.000248 ± 5e-05 s⁻¹ |  | 4.51e-05 ± 9.7e-06 s⁻¹ | 2260 ± 1000 µM | 0.000176 ± 2.3e-05 s⁻¹ | 0.000188 ± 2.3e-05 s⁻¹ |  |
| C11U G37C | 1.18e-05 ± 3.2e-06 s⁻¹ |  |  |  |  |  |  |
| A12U G13A | 0.0015 ± 0.00056 s⁻¹ |  | 8.57e-05 ± 1.1e-05 s⁻¹ |  | 0.000208 ± 3.6e-05 s⁻¹ | 0.000715 ± 9.5e-05 s⁻¹ |  |
